Assay results reported in US20250313627A1.

Assays:
[1] = biological target: human ROR1 (Receptor Tyrosine Kinase-Like Orphan Receptor 1) on the cell surface (human) (UniProt Q01973); assay: flow cytometry, B16-F10 cells expressing human ROR1 (high density)
[2] = biological target: human ROR1 (Receptor Tyrosine Kinase-Like Orphan Receptor 1) on the cell surface (human) (UniProt Q01973); assay: as above; remark: listed apart in the source
[3] = biological target: human ROR1 (Receptor Tyrosine Kinase-Like Orphan Receptor 1) on the cell surface (human) (UniProt Q01973); assay: as above; remark: listed apart in the source
[4] = biological target: human ROR1 (Receptor Tyrosine Kinase-Like Orphan Receptor 1) on the cell surface (human) (UniProt Q01973); assay: as above; remark: listed apart in the source
[5] = biological target: human ROR1 (Receptor Tyrosine Kinase-Like Orphan Receptor 1) on the cell surface (human) (UniProt Q01973); assay: as above; remark: listed apart in the source
[6] = biological target: human ROR1 (Receptor Tyrosine Kinase-Like Orphan Receptor 1) on the cell surface (human) (UniProt Q01973); assay: as above; remark: listed apart in the source
[7] = biological target: human ROR1 (Receptor Tyrosine Kinase-Like Orphan Receptor 1) on the cell surface (human) (UniProt Q01973); assay: flow cytometry, LS174T cells expressing human ROR1 (low density)
[8] = biological target: human ROR1 (Receptor Tyrosine Kinase-Like Orphan Receptor 1) on the cell surface (human) (UniProt Q01973); assay: as above; remark: listed apart in the source

human ROR1 (Receptor Tyrosine Kinase-Like Orphan Receptor 1) on the cell surface (human), sequence (Q01973 30-937): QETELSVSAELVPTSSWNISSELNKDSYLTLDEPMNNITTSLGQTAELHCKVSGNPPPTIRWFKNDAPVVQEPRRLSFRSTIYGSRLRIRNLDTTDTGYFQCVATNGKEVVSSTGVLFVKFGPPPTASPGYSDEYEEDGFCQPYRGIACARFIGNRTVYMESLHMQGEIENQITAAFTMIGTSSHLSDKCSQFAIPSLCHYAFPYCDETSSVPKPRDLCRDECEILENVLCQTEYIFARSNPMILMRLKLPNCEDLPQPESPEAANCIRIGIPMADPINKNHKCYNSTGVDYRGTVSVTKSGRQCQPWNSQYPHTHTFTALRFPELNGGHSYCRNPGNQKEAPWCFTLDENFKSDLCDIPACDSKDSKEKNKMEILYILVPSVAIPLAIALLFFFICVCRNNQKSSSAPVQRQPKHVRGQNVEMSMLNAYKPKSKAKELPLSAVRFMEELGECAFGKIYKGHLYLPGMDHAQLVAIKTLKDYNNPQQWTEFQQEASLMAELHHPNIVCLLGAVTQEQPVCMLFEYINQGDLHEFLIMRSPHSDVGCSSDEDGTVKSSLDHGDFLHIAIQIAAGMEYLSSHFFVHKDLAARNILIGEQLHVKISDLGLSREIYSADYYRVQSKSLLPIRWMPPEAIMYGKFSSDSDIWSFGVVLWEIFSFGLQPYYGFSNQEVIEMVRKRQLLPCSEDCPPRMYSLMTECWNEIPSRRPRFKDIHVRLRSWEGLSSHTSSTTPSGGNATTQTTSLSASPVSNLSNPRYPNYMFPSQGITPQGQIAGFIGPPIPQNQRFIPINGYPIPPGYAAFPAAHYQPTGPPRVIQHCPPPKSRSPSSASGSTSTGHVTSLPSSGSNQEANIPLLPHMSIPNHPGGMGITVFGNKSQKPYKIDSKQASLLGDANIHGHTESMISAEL

Row | MFI [1] | MFI [2] | MFI [3] | MFI [4] | MFI [5] | MFI [6] | MFI [7] | MFI [8] | Substance
1 | 12.1 | 3.86 | 9.86 | 1140 | 13.3 | 6.85 |  |  | Hen Egg Lysozyme (HEL)-specific antibody
2 | 15.5 | 3.01 | 5.67 | 125 | 9.92 | 4.45 | 22.6 | 45.3 | goat anti human IgG-Fc specific PE secondary antibody, alone
3 | 4.36 | 2.08 | 6.1 | 94.6 | 6.53 | 4.31 | 23.2 | 54 | mIgG-PE (PE labeled mouse IgG Ab) (antibody)
4 |  |  |  |  |  |  | 30.8 | 316 | Human IgG1 (antibody)
